2 molecules from patent US20180193430, “COMPOSITIONS AND METHODS TO INHIBIT VIRAL REPLICATION” (published 2018) can be followed below.

For one data set, the target named is T1, RIG-I-K270A (Homo sapiens, UniProt O95786 SEQ:1-925, K270A).
T1 sequence: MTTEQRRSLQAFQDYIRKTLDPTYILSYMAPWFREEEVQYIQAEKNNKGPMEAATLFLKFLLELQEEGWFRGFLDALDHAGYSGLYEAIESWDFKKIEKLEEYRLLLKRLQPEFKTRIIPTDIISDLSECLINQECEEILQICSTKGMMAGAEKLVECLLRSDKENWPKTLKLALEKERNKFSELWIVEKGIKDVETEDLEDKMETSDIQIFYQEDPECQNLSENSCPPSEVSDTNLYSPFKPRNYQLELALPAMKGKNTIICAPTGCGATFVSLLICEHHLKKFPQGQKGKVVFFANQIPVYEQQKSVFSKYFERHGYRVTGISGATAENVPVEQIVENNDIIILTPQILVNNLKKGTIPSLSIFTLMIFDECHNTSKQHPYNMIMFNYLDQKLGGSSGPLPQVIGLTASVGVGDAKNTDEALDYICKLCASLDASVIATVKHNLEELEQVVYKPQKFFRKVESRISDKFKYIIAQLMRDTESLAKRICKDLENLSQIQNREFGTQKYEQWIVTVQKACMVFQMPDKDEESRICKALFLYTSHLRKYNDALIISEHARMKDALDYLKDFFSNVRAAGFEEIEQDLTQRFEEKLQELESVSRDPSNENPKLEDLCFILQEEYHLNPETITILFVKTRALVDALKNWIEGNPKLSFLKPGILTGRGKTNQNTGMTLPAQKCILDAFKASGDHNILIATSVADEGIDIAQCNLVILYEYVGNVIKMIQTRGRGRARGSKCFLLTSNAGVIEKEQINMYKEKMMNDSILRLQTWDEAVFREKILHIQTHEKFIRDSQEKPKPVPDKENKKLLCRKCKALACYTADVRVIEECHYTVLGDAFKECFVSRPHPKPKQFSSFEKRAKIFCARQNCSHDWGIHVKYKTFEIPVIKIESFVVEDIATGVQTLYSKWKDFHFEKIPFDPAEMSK
The experiment in a line: EMSA; affinity similar to WT; 1.5 mM MgCl2, room temperature. As to conditions: tags: Flag; purified from transfected HEK293T; label: 32P at 5' end of bottom strand; blunt 19 bp duplex. Background: In EMSA bound probe runs differently from free probe, usually more slowly.

A further data set addresses T2, RIG-I-N495D (Homo sapiens, UniProt O95786 SEQ:1-925, N495D).
T2 sequence: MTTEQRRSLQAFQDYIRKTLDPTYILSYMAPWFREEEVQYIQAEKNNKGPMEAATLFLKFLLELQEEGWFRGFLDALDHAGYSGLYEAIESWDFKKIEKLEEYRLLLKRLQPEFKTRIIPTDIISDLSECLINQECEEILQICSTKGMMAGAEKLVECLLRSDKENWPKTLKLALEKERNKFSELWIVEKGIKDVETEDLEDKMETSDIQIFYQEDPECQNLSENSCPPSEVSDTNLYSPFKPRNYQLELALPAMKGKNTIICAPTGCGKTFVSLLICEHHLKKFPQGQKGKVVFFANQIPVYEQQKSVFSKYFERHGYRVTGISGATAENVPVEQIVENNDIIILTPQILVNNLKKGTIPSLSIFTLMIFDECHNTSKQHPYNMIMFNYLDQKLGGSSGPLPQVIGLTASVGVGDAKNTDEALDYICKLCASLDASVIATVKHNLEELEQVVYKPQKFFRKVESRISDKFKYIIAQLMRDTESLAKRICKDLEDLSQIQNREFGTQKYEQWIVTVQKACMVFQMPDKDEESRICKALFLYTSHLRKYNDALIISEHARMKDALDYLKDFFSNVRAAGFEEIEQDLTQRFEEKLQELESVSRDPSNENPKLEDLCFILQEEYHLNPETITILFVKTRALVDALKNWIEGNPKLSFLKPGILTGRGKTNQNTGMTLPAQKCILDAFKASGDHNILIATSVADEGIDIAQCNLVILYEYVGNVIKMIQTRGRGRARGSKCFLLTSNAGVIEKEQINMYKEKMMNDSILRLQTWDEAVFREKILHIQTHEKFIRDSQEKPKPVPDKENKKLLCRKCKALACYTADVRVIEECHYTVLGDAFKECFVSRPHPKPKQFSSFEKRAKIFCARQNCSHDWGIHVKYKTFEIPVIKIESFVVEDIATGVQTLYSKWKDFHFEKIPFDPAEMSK
In words: EMSA; affinity comparable to WT; 1.5 mM MgCl2, room temperature. As to conditions: tags: Flag; purified from transfected HEK293T; label: 32P at 5' end of bottom strand; blunt 19 bp duplex.

Data set [1] has as its target T3, RIG-I wild-type (Homo sapiens, UniProt O95786 SEQ:1-925).
T3 chain: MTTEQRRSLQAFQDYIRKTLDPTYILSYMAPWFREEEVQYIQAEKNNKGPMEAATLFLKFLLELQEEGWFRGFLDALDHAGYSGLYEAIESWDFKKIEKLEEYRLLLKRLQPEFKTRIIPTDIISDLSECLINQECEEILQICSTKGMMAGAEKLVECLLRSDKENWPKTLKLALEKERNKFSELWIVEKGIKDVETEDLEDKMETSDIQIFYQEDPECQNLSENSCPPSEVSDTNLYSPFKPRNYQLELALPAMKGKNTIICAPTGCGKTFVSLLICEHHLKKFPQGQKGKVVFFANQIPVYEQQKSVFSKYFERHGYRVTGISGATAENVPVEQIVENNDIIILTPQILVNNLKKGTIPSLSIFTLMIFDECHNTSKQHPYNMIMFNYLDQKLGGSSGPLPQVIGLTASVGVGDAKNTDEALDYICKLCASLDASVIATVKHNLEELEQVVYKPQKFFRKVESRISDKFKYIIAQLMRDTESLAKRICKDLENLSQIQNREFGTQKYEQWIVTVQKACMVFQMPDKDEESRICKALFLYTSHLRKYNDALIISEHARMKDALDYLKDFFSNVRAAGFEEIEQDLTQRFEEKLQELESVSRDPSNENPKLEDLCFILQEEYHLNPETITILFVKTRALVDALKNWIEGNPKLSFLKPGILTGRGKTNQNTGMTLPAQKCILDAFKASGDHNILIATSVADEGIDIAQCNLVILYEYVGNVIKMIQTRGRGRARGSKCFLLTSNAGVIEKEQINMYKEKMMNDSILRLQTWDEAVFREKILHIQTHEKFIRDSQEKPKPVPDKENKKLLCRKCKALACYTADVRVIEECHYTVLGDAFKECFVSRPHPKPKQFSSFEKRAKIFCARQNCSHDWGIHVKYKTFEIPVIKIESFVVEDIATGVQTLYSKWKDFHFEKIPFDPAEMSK
The experiment in a line: EMSA; two RIG-I:RNA complexes with increasing RIG-I; 20 mM Tris-HCl pH 8.0, 1.5 mM MgCl2, 1.5 mM DTT, room temperature. As to conditions: tags: Flag; purified from transfected HEK293T; label: 32P at 5' end of bottom strand; blunt 19 bp duplex.

For data set [2], the target named is T3, RIG-I wild-type. The experiment in a line: EMSA; forms the slowly migrating complex with dsRNA lacking 5'-triphosphate; 1.5 mM MgCl2, room temperature. As to conditions: tags: Flag; purified from transfected HEK293T; label: 32P at 5' end of bottom strand; blunt 19 bp duplex lacking 5'-triphosphate.

B1: 5'-ppp-dsRNA 19mer (dsRNA)
RNA 1: GCAUGCGACCUCUGUUUGA
RNA 2: UCAAACAGAGGUCGCAUGC
modifications: 5'-triphosphate on top strand
B1: the binding result with RIG-I-K270A, in the data set with RIG-I-N495D and with RIG-I wild-type [1] was “binds” in each case.

B2: control dsRNA 19mer (dsRNA)
RNA 1: GCAUGCGACCUCUGUUUGA
RNA 2: UCAAACAGAGGUCGCAUGC
Turning to B2, in the data set with RIG-I wild-type [2], the binding result is on record as “binds”.
